Measurements taken from FireProtDB.

B1: Growth factor receptor-bound protein 2, Q08012 (parent)
chain: MEAIAKHDFSATADDELSFRKTQILKILNMEDDSNWYRAELDGKEGLIPSNYIEMKNHDWYYGRITRADAEKLLSNKHEGAFLIRISESSPGDFSLSVKCPDGVQHFKVLRDAQSKFFLWVVKFNSLNELVEYHRTASVSRSQDVKLRDMIPEEMLVQALYDFVPQESGELDFRRGDVITVTDRSDENWWNGEIGNRKGIFPATYVTPYHS
B2: DNA-binding protein HU 1, P08821 (parent)
chain: MNKTELINAVAEASELSKKDATKAVDSVFDTILDALKNGDKIQLIGFGNFEVRERSARKGRNPQTGEEIEIPASKVPAFKPGKALKDAVAGK
B3: Ribonuclease HI, P0A7Y4 (parent)
chain: MLKQVEIFTDGSCLGNPGPGGYGAILRYRGREKTFSAGYTRTTNNRMELMAAIVALEALKEHCEVILSTDSQYVRQGITQWIHNWKKRGWKTADKKPVKNVDLWQRLDAALGQHQIKWEWVKGHAGHPENERCDELARAAAMNPTLEDTGYQVEV

Variants of: B1
Settings: Drosophila melanogaster; pH 6; 20 °C; GdnHCl; Fluorescence; phosphate 50 mM; structure 2A36; whole UniProt chain shown

| Variant | ddG of mutation (higher = less stable) | denaturant m value | unfolding free energy |
| --- | --- | --- | --- |
| T22G | -3.6 kcal/mol | 2.2 kcal/mol/M | 4 kcal/mol |

Variants of: B2
Settings: Bacillus subtilis (strain 168); pH 7.5; 20 °C; Thermal; CD; Tris/HCl 5 mM; reversible: yes; whole UniProt chain shown

| Variant | unfolding free energy |
| --- | --- |
| F50W | 8.61 kcal/mol |
| F79W | 9.57 kcal/mol |

Variants of: B3
Settings: Escherichia coli (strain K12); pH 3; 49.8 °C; Thermal; CD; glycine-HCl 10 mM; reversible: yes; structure 2RN2; whole UniProt chain shown

| Variant | ddG of mutation (higher = less stable) |
| --- | --- |
| K91R K95G | -1.6 kcal/mol |
| K95N | -0.9 kcal/mol |
| K95A | -0.1 kcal/mol |
| Y28F R29H G30A R31H | 0.7 kcal/mol |

Same assay, conditions: Escherichia coli (strain K12); pH 3; Thermal; CD; glycine-HCl 10 mM; reversible: yes; structure 2RN2; whole UniProt chain shown

| Variant | Tm | change of melting temperature, mutant - wild type (higher = more stable) | unfolding enthalpy (van 't Hoff) |
| --- | --- | --- | --- |
| K91R K95G | 55 °C | 5.2 °C | 114 kcal/mol |
| K95N | 49.8 °C | 2.9 °C | 109 kcal/mol |
| K95G | 49.8 °C | 5.7 °C | 102 kcal/mol |
| Y28F R29H G30A R31H | 47.5 °C | -2.3 °C | 92.5 kcal/mol |

Same assay, conditions: Escherichia coli (strain K12); pH 5.5; Thermal; CD; glycine-HCl 10 mM; reversible: yes; structure 2RN2; whole UniProt chain shown

| Variant | Tm | change of melting temperature, mutant - wild type (higher = more stable) | unfolding enthalpy (van 't Hoff) |
| --- | --- | --- | --- |
| K91R K95G | 57.8 °C | 5.8 °C | 92 kcal/mol |
| Y28F R29H G30A R31H | 48.8 °C | -3.2 °C | 80.5 kcal/mol |

Same assay, conditions: Escherichia coli (strain K12); pH 3; 50.1 °C; Thermal; CD; glycine-HCl 10 mM; NaCl 0.1 M; reversible: yes; structure 2RN2; whole UniProt chain shown

| Variant | ddG of mutation (higher = less stable) |
| --- | --- |
| H62P T40A K122R | -0.52 kcal/mol |
| K95N | -0.88 kcal/mol |

Same assay, conditions: Escherichia coli (strain K12); pH 3; Thermal; CD; glycine-HCl 10 mM; NaCl 0.1 M; reversible: yes; structure 2RN2; whole UniProt chain shown

| Variant | Tm | change of melting temperature, mutant - wild type (higher = more stable) | unfolding enthalpy (van 't Hoff) |
| --- | --- | --- | --- |
| H62P T40A K122R | 51.8 °C | 1.7 °C | 109 kcal/mol |
| K95N | 53 °C | 2.9 °C | 109 kcal/mol |

Same assay, conditions: Escherichia coli (strain K12); pH 5.5; Thermal; CD; Sodium acetate 20 mM; NaCl 0.1 M; reversible: yes; structure 2RN2; whole UniProt chain shown

| Variant | Tm | change of melting temperature, mutant - wild type (higher = more stable) | unfolding enthalpy (van 't Hoff) |
| --- | --- | --- | --- |
| H62P T40A K122R | 55.8 °C | 3.1 °C | 96.9 kcal/mol |

Same assay, conditions: Escherichia coli (strain K12); pH 5.5; 49.8 °C; Thermal; CD; Sodium acetate 20 mM; reversible: yes; structure 2RN2; whole UniProt chain shown

| Variant | ddG of mutation (higher = less stable) |
| --- | --- |
| K95N | -0.9 kcal/mol |
| K95G | -1.9 kcal/mol |
| K95A | -0.1 kcal/mol |

Same assay, conditions: Escherichia coli (strain K12); pH 5.5; 52.7 °C; Thermal; CD; Sodium acetate 20 mM; NaCl 0.1 M; reversible: yes; structure 2RN2; whole UniProt chain shown

| Variant | ddG of mutation (higher = less stable) |
| --- | --- |
| K95N | -0.88 kcal/mol |

Same assay, conditions: Escherichia coli (strain K12); pH 5.5; Thermal; CD; Sodium acetate 20 mM; reversible: yes; structure 2RN2; whole UniProt chain shown

| Variant | Tm | change of melting temperature, mutant - wild type (higher = more stable) | unfolding enthalpy (van 't Hoff) |
| --- | --- | --- | --- |
| K95N | 52 °C | 3.2 °C | 90 kcal/mol |
| K95G | 52 °C | 6.8 °C | 90.4 kcal/mol |
| K95A | 52 °C | 0.4 °C | 96.4 kcal/mol |

Same assay, conditions: Escherichia coli (strain K12); pH 5.5; 52 °C; Thermal; CD; glycine-HCl 10 mM; reversible: yes; structure 2RN2; whole UniProt chain shown

| Variant | ddG of mutation (higher = less stable) |
| --- | --- |
| Y28F R29H G30A R31H | 0.9 kcal/mol |
